In the DeepSol protein solubility set:

experiment: soluble on expression in E. coli; label from the status in PepcDB or PDB records

Row | Sequence | soluble on expression in E. coli
1 | MDPTQISHLALDIGGTLIKLVYFSANGDYSEESRNGCSVVKGRLCFAKFETRKIDDCLEFIRFNILHHSEVTIQVYSNRMAKATGGGAFKFADLFKEKLGILFDKEDEMCSLVGGVNFLLKTVPREAFTYLDGQKKFVEIDHNDLYPYLLVNIGSGVSMIKVDGDGKYERISGTSLGGGTFLGLGKLLTKCKSFDELLELSHHGNNRVIDMLVGDIYGGTDYSKIGLSSTAIASSFGKAISDGKELEDYQPEDVARSLLRMISNNIGQIAYLNALRFGLKRIFFGGFFIRGLEYTMDTISVAVHFWSRGEAKAMFLRHEGFLGALGAFTSYNDQSHNDLKPHHHTVQRAILNCSGHNFRHIPVTSNLNESETIECSINLV | soluble
2 | MGSDKIHHHHHHMAATFLDIAITPDVMDVQHEMGSDSLWQTPRSRRQADRFGDSEAGMIATRDSFYLATVSQSGWPYIQHRGGPPGFLHLLDDITLAMADFGGNRQYITTGNLRGSDRACLFLMDYPRRARLKIYATVEVLAAEDHPQLLAQVAPANYRARIERLFLFHLQAFDWNCPQHITPRYSAQQVAEYSQNLQQRIHDLEQENQRLQQQLARRGE | not soluble
3 | MFSEKFFTASFGPDDEQPAIKAAANNAAPIFHLFILEFLLFKYQLLSKDSEYPYLLIRAGDNNRPKKAERRDKASKMWSRNQEKHGSKKSEKSNQNKNFYVREFFSFGASSKKFPNHVFRDVF | not soluble
4 | MGSDKIHHHHHHMTRSVLVDLDAVLSIARLGSFRAAALDLGMSTTALSNAIAKLEQRLGVRLFNRTTRSVSLTDAGKTFAERVGPAMMDIHDAMLSVQSLQETPAGTLRINAFATAAREVMEPLILSFMQRYPQVHIDLVTEGRIVDIVAAGFDLGLRPADLVPADMIAVSLGLKRSNAVVASPDFLRIHGIPTVPADLYRFRCIRARLPNNALFRWKFEKDGDAMQIDVQGSITLDESSLVRIAAQNGVGLGYVMEADVREDIAAGRLVRVLEDWTPALAPLALYYPGRKNPPAAFSAFIQAARNFANGG | not soluble
5 | MGSDKIHHHHHHMAFSFDSRIRYSEVDSSCRLSLTGLTNYFQDCSVFHSQSHDVGIRFLADNHIAWVLSSWQICINRLPLLNEQVKISTWAYGMKAFYGYRNFTLEDAGGSTLAYANSVWVLVDTRTGRPVKVPQEFADTYGLEPQLEMECAKRKLHIPDDMEKKGEIVVPQFFIDSNHHMNNEKYVMLAQQLLPNDFEISELRVEYRKEAKLGDTVISYVKYTSKSVTVVLADTDKKPYSVVEFLSKPVPGK | not soluble
6 | GPGSMASSSTADDHSAVAGIVASSASVCGSRDAAASPPTALPKLGSAKQQRTERAFLFDRYPSRKIALRLAYHGHVHDGLAKQKETDNTVEGLVCDALRRLRLIPEDGPHNFGRCGRTDKGVSALGNAFSLTARASCTGDAEPQLPPLDYCSMLNNVLPSTIRIVGCALVDDAFDARFSCVHRTYRYYFFHRGLNLAAMQEAAAFFLGTHNFRNFCKMDVVNVSNFVRTVFSVGLHPSEALPELISYLEIRANSFLYHQIRCIMEVLFLVGRGLEVPSVVQTLLELGDRKPTYPLADGTPLILWDCGFDNVQWQMSHCAFHAMEQELQDIGTALLIRATSATAMRSQLFRWYTGTADVFRKDTSEKDASGEDRSRAVVRRDPELRRLDGWSITGCDWTDPGTAGQMKARKRDLLYYLRTEAKNGQPLPTTTSCEEKTSQTAETIASGALAPVNYVPLLQRETERTYEEEVRELSGKKRARYEVNEAKKAAAAAAHKEVVSED | not soluble
7 | MADAIQTAPRFTGKNRDPQLFTVTNHYNEAGTGPLEAAICRHNPLHVVSAALRHQHEESQCPDRKWNPSEKIVKYKDMQ | not soluble
8 | MSLDQQSKEQLNIREMTKEDVPQVFDLERRSFNDSSWTIDAFYHEIEQNNFAKYFVLEFEQQIIGYLGLWIVIDQAQITTVAIDDNYRGYGLGQMLLKYGINYASHTCDVMSLEVRVNNKVAQHVYENLGFQYGGKRKNYYGEGEDAMVMWVNLNDEGHHHHHH | soluble
9 | MAAIHINHDVFNKYHTNGKLRLTTGYVQEAIENNGYPGHDGIVQVLKGKVEQGEQLGHAFTFRIRISDGVFQYNALMSADIDDQIKREVEHLVEGTIIALTKFEIYDQGEGAKNCFLIKGYKILSRYHQVLTSPEVKPRSHSGKPDEHKGYRPNIIIEDVWPEAEGMAADYQENMANPPAAKAPKREFGEEASYNRAAAPEATRARAVPPPARRTASNTERGVMPIAMVTPYVSNFKIHGMVSRKEEIRTFPAKNTKVFNFEITDSNGDTIRCTAFNEVAESLYTTITENLSYYLSGGSVKQANKKFNNTGHDYEITLRSDSIIEAGGELLAAPKLILKRVKLGEIAGYAGQLIDVLVVVEKMDPEATEFTSKAGKSLIKREMELIDESGALVRLTLWGDEATKALVDDYVQKVIAFKGVIPREFNGGFSLGTGSATRIISVPEIAGVSELYDWYANVKPTTEVKMMSQAAGGSNEAPRTIAGLQEMQFGKDSDKGDYATVKAMITRVNPTNALYRGCASEGCQKKLVGENGDYRCEKCNKNMNKFKWLYMMQFELSDETGQVYVTAFGDSAAKIVGKSAAELGELHDESPDEYNAIFERLQFVPKMWRLRCKMDSYNEEVRQKMTVYGVDDVNQDKYIENLKQMIEQMQQMSDY | soluble
10 | MYSFPNSFRFGWSQAGFQSEMGTPGSEDPNTDWYKWVHDPENMAAGLVSGDLPENGPGYWGNYKTFHDNAQKMGLKIARLNVEWSRIFPNPLPRPQNFDESKQDVTEVEINENELKRLDEYANKDALNHYREIFKDLKSRGLYFILNMYHWPLPLWLHDPIRVRRGDFTGPSGWLSTRTVYEFARFSAYIAWKFDDLVDEYSTMNEPNVVGGLGYVGVKSGFPPGYLSFELSRRAMYNIIQAHARAYDGIKSVSKKPVGIIYANSSFQPLTDKDMEAVEMAENDNRWWFFDAIIRGEITRGNEKIVRDDLKGRLDWIGVNYYTRTVVKRTEKGYVSLGGYGHGCERNSVSLAGLPTSDFGWEFFPEGLYDVLTKYWNRYHLYMYVTENGIADDADYQRPYYLVSHVYQVHRAINSGADVRGYLHWSLADNYEWASGFSMRFGLLKVDYNTKRLYWRPSALVYREIATNGAITDEIEHLNSVPPVKPLRH | soluble
11 | MGSDKIHHHHHHMSRFTYAYMMMTRLETLKNNLQAAFGQDLALTESLGELTLEVAAEQWFSACTKLRTDPALRFESCIDLCGVDYLTWGNGTQPEEKTGPVTHGRYAVVVHLLSIEHNWRLRVRTWAPDDEFPMVSSLLECWPGVNWFEREAFDLYGIVFEGHPDLRRILTDYGFIGHPFRKDFPLSGTVEMRYDPEQKRVIYQPVTIDPREITPRVVREGSYGMGR | not soluble
12 | MGSDKIHHHHHHMSTPIPSLADAPPVLCVHGIGKTYAEPVLADVSLELRAGEVLALTGENGAGKSTLSKIVGGLVTPTTGSMTLGGAAYAPASRKDAEALGVRMVMQELNLLPTLSVAENLFLNRLPRNLVGWIDRARLRENARHAMAQVGLDAIDPDTLVGTLGIGHQQMVEIARNLIGDCRVLILDEPTAMLTAREVDLLFEQVERLKAHGVALVYISHRLEELKRIARRAAVLRDGRLVHVDEMANLSTDRLVTLMVGRDIGDRIDLGERRIGEVAFKVSGMTREPVVRDVSFEVRAGEIFGISGLIGAGRTELMRLIYGADHADAGSVSLGRGGAAPEPVTIASPSDAVQHGIALITEDRKGEGLLLTQPIAANISLGHLRAVSNKGVVDGRREAALARRQIDAMRIRSAGPSQPVSELSGGNQQKVVIGRWLARDCTVLLFDEPTRGIDVGAKFDIYALMGALAREGRALVVVSSDLRELMAICDRIGVMSAGRMTGLFERGNWTQDALLAAAFAGYAKRDDLLHEPIEPDAKAPDESKLVEY | not soluble
13 | MSLADIFDFPRDARNVARADGKEADMGGEAPQTMLMRPQGVPDQVWNAVLSVDRMRRLKGMTYREIPVPNSMANFGIGVALECDETYASGWIMILYSLKFREDWHSHWRCVAFASLPLPDKEDDCLTPGMYWDMMMERLNPNDSEHVSGTVTVTQNTAFGHDPDVPRVGCEIRVSWTPLDYADGGLDAGSQVGQWASFLRSMTQSEEEGHHHHHH | soluble
14 | MGSDKIHHHHHHMVGIVLASHGNFAEGIYQSAEMIFGKQQNVQTVTLSPNEGPEDFLNKLKQAIDSFDDQKQVLLLIDLWGGTPFNQSSGLLSGHEDSWAVVTGMNLPMVIEAYGSRSSMDSAQEIATHIIETGKDGIRIKPESLEPKKATATVKSSGQPHGTIAPGTVLGDGKIKYVLARVDSRLLHGQVAMSWTKSTNPNRILVVSDSVAKDRLRKSMIVEAAPPGVNTNVIPIKKMIEVAKDPRFGNTKALVLFENPEDALKTIEGGVDIKELNIGSMSHAVGKVAVNKVLSLGKEDVEAFDGLKKLGVKFDVRKVPGDSSENMDNIVIKLEKIYQVLNLKKIRRV | not soluble
